Biological target: vimentin (rat (endogenous in glioma C6 cells)) (UniProt P31000)
Experiment: co-sedimentation

vimentin (rat (endogenous in glioma C6 cells)), sequence (P31000 whole entry): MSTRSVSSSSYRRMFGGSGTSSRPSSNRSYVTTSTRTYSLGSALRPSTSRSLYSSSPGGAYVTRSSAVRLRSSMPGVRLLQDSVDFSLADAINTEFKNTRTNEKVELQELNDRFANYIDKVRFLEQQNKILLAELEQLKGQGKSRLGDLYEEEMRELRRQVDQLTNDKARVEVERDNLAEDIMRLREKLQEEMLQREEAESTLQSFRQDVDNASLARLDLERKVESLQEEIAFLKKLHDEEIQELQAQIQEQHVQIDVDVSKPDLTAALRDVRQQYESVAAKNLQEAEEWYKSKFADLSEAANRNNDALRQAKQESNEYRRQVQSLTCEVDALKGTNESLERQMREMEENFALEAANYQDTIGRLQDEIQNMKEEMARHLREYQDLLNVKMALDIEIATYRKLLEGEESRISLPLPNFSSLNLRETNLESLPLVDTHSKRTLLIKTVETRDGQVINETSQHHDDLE

plectin (Mr 300,000), P30427 1-4687
mass ratio of plectin to vimentin in the pelleted aggregates: 0.25
mass ratio plectin/vimentin in the pellet P1 (round 1): 0.28
mass ratio plectin/vimentin in the pellet P2 (round 2): 0.23
percent of the total plectin recovered in the pellet of the mixture: 27%
percent of the total vimentin recovered in the pellet of the mixture: 32%
